Data reported in patent publication CN115521379A (NANJING JISHENG AOMA BIOLOGICAL PHARMACEUTICAL CO LTD, dated 2022).

Tests used:
PD-1蛋白 [1] = molecular target: T1, PD-1蛋白 (human, UniProt Q15116 25-167, limits assumed); test: binding ELISA on coated PD-1 protein
T1 construct: Recombinant PD-1 protein used in ELISA, SPR and BLI; also called PD-1[B]; (biotinylated)

PD-1蛋白 [2] = molecular target: T1, PD-1蛋白; test: SPR (Biacore T200), antibody captured by anti-human Fc, PD-1 injected
PD-1蛋白 [3] = molecular target: T1, PD-1蛋白; test: competition ELISA: PD-L1 coated, biotinylated PD-1 0.5 ug/mL, antibody titrated

T1 sequence (Q15116 25-167 limits assumed): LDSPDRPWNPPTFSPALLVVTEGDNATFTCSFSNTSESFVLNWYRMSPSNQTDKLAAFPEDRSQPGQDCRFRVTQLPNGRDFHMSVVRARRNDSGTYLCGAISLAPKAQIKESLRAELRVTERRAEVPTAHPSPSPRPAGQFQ

Binder	IC50 (PD-1蛋白 [3])	also measured
hu19D4-25 (antibody, V domains shown, also called 人源化抗体hu19D4-25) VH: EVQLQESGPGLVKPSETLSLTCTVSGFSLTSYAISWIRQPPGKGLEWIGVIWTGGGTNYNSALKSRVTISKDTSKNQVSLKLSSVTAADTAVYYCARDHYGTSPFVYWGQGTLVTVSS VL: DIVLTQTPLSLSVTPGQPASISCRASESVDNYGISFMNWFLQKPGQPPQLLIYAASNQGSGVPDRFSGSGSGTDFTLKISRVEAEDVGVYFCQQSKEVPWTFGGGTKVEIK	–	EC50 (PD-1蛋白 [1]): 0.192 nM; Kd (PD-1蛋白 [2]): 89.5 nM; koff (PD-1蛋白 [2]): 0.0105 s⁻¹; kon (PD-1蛋白 [2]): 118000 M⁻¹ s⁻¹
1C2-3C11-Agly-YTE (antibody, V domains shown, also called 19D4-25-1C2-3C11与YTE突变、N297突变的Fc融合后得到的抗原结合蛋白) VH: EVQLQESGPGLVKPSETLSLTCTVSGFSLTSYAISWIRQPPGKGLEWIGVIWTGGGTNYNSALKSRVTISKDTSKNQVSLKLSSVTAADTAVYYCAREHYGTSPFVYWGQGTLVTVSS VL: DIVLTQTPLSLSVTPGQPASISCRASESVDNYGISFMNWFLQKPGQPPQLLIYAASNQGSGVPDRFSGSGSGTDFTLKISRVEAEDVGVYFCQQSLEVPWTFGGGTKVEIK	0.369 µg/mL	–
1C2-3C11-W52F-Agly-YTE (antibody, V domains shown, 19D4-25-1C2-3C11 with W52F and an Fc with YTE (M252Y, S254T, T256E) and N297A; The label itself is not defined in the text) VH: EVQLQESGPGLVKPSETLSLTCTVSGFSLTSYAISWIRQPPGKGLEWIGVIFTGGGTNYNSALKSRVTISKDTSKNQVSLKLSSVTAADTAVYYCAREHYGTSPFVYWGQGTLVTVSS VL: DIVLTQTPLSLSVTPGQPASISCRASESVDNYGISFMNWFLQKPGQPPQLLIYAASNQGSGVPDRFSGSGSGTDFTLKISRVEAEDVGVYFCQQSLEVPWTFGGGTKVEIK	0.495 µg/mL	–
1C2-Agly (antibody, V domains shown, also called 19D4-25-1C2与N297突变的Fc融合后得到的抗原结合蛋白) VH: EVQLQESGPGLVKPSETLSLTCTVSGFSLTSYAISWIRQPPGKGLEWIGVIWTGGGTNYNSALKSRVTISKDTSKNQVSLKLSSVTAADTAVYYCARDHYGTSPFVYWGQGTLVTVSS VL: DIVLTQTPLSLSVTPGQPASISCRASESVDNYGISFMNWFLQKPGQPPQLLIYAASNQGSGVPDRFSGSGSGTDFTLKISRVEAEDVGVYFCQQSLEVPWTFGGGTKVEIK	0.375 µg/mL	–
1C2-Agly-YTE (antibody, V domains shown, also called 19D4-25-1C2与YTE突变、N297突变的Fc融合后得到的抗原结合蛋白) VH: EVQLQESGPGLVKPSETLSLTCTVSGFSLTSYAISWIRQPPGKGLEWIGVIWTGGGTNYNSALKSRVTISKDTSKNQVSLKLSSVTAADTAVYYCARDHYGTSPFVYWGQGTLVTVSS VL: DIVLTQTPLSLSVTPGQPASISCRASESVDNYGISFMNWFLQKPGQPPQLLIYAASNQGSGVPDRFSGSGSGTDFTLKISRVEAEDVGVYFCQQSLEVPWTFGGGTKVEIK	0.492 µg/mL	–
3C11-Agly-YTE (antibody, V domains shown, also called 19D4-25-3C11与YTE突变、N297突变的Fc融合后得到的抗原结合蛋白) VH: EVQLQESGPGLVKPSETLSLTCTVSGFSLTSYAISWIRQPPGKGLEWIGVIWTGGGTNYNSALKSRVTISKDTSKNQVSLKLSSVTAADTAVYYCAREHYGTSPFVYWGQGTLVTVSS VL: DIVLTQTPLSLSVTPGQPASISCRASESVDNYGISFMNWFLQKPGQPPQLLIYAASNQGSGVPDRFSGSGSGTDFTLKISRVEAEDVGVYFCQQSKEVPWTFGGGTKVEIK	0.543 µg/mL	–
WT-Agly-YTE (antibody, V domains shown, also called WT-Ag-YTE; WT-AGY-YTE) VH: EVQLQESGPGLVKPSETLSLTCTVSGFSLTSYAISWIRQPPGKGLEWIGVIWTGGGTNYNSALKSRVTISKDTSKNQVSLKLSSVTAADTAVYYCARDHYGTSPFVYWGQGTLVTVSS VL: DIVLTQTPLSLSVTPGQPASISCRASESVDNYGISFMNWFLQKPGQPPQLLIYAASNQGSGVPDRFSGSGSGTDFTLKISRVEAEDVGVYFCQQSKEVPWTFGGGTKVEIK	0.411 µg/mL	–
